Paper PMC9482650, “Quantitative fragmentomics allow affinity mapping of interactomes” (Nature Communications, 2022)
Positions count from the first letter of the chain named.

Tests used:
Assay in all cases: holdup assay
Parameters in all cases: key: below the threshold = too weak to quantify, mostly under pKd 3.1 to 4
MAST1, Q9Y2H9 = biological target: MAST1, Q9Y2H9
MAGI2_5, Q86UL8 = biological target: MAGI2_5, Q86UL8
Inadl_1, Q8NI35 = biological target: Inadl_1, Q8NI35
NHERF4_1, Q86UT5-2 = biological target: NHERF4_1, Q86UT5-2
MAGI2_3, Q86UL8 = biological target: MAGI2_3, Q86UL8
APBA1_1, Q02410 = biological target: T1, APBA1_1, Q02410
T1 sequence (Q02410 651-752, limits assumed, looked up): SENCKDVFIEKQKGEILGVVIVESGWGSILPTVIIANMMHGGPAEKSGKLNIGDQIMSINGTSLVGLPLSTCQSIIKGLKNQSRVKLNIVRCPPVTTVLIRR

CASK, O14936 = biological target: CASK, O14936
LIN7B, Q9HAP6 = biological target: T2, LIN7B, Q9HAP6
T2 sequence (Q9HAP6 88-185, limits assumed, looked up): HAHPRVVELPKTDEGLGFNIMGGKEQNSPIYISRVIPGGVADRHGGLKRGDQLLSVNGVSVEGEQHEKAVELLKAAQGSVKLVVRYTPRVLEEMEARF

GORASP1, Q9BQQ3 = biological target: GORASP1, Q9BQQ3
SCRIB_2, Q14160 = biological target: SCRIB_2, Q14160
ARHGEF12, Q9NZN5-2 = biological target: ARHGEF12, Q9NZN5-2
AHNAK1, Q09666 = biological target: AHNAK1, Q09666
GRIP1_7, Q9Y3R0 = biological target: T3, GRIP1_7, Q9Y3R0
T3 sequence (Q9Y3R0 999-1096, limits assumed, looked up): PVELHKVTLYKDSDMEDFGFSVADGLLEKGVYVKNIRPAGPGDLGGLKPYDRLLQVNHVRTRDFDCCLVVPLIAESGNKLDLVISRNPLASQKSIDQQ

DLG3_3, Q92796 = biological target: T4, DLG3_3, Q92796
T4 sequence (Q92796 374-475, limits assumed, looked up): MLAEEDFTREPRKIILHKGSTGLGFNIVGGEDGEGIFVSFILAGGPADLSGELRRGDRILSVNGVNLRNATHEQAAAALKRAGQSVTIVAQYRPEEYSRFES

MAGI3_2, Q5TCQ9 = biological target: MAGI3_2, Q5TCQ9
SNX27, Q96L92 = biological target: SNX27, Q96L92
SCRIB_3, Q14160 = biological target: SCRIB_3, Q14160
LNX1_1, Q8TBB1 = biological target: LNX1_1, Q8TBB1
NHERF2_2, Q15599 = biological target: NHERF2_2, Q15599
SNTG2, Q9NY99 = biological target: T5, SNTG2, Q9NY99
T5 sequence (Q9NY99 68-166, limits assumed, looked up): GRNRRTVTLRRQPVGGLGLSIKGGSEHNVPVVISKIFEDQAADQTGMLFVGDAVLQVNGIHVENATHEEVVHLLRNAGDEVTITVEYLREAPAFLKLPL

Inadl_8, Q8NI35 = biological target: Inadl_8, Q8NI35
LIN7C, Q9NUP9 = biological target: T6, LIN7C, Q9NUP9
T6 sequence (Q9NUP9 88-185, limits assumed, looked up): T2 sequence (Q9HAP6 88-185, limits assumed, looked up) with A2S, D13E, V35I, V40I, Q65H, S79K, R89K, A96S

MAST2, Q6P0Q8 = biological target: MAST2, Q6P0Q8
HTRA2, O43464 = biological target: HTRA2, O43464
PTPN3, P26045 = biological target: PTPN3, P26045
GRIP1_2, Q9Y3R0 = biological target: T7, GRIP1_2, Q9Y3R0
T7 sequence (Q9Y3R0 145-248, limits assumed, looked up): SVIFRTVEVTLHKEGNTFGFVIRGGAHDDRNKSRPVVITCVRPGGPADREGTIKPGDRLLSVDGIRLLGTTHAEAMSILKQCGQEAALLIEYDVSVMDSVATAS

TJP3_3, O95049 = biological target: T8, TJP3_3, O95049
T8 sequence (O95049 375-456, limits assumed, looked up): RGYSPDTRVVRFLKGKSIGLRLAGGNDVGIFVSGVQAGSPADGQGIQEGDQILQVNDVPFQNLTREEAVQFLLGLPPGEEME

PARD3_3, Q8TEW0 = biological target: PARD3_3, Q8TEW0
TJP1_2, Q07157 = biological target: TJP1_2, Q07157
PDLIM1, O00151 = biological target: PDLIM1, O00151
SCRIB_1, Q14160 = biological target: SCRIB_1, Q14160
[1] = plain residues with an end cap or a label only (N-terminal biotin on a linker: ahx)
[2] = plain residues with an end cap or a label only (N-terminal biotin on a linker: none)

Sequence of PTPN3, P26045 (P26045 505-587): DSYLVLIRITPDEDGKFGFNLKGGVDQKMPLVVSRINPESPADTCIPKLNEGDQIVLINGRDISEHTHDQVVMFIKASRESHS
Sequence of MAGI2_5, Q86UL8 (Q86UL8 915-1017): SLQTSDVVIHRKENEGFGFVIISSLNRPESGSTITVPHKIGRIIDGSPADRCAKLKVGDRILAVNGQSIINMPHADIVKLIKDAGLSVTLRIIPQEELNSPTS
Sequence of MAST1, Q9Y2H9 (Q9Y2H9 962-1065): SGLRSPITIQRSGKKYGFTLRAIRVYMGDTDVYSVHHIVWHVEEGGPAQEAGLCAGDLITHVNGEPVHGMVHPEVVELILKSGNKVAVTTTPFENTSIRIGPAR
Sequence of ARHGEF12, Q9NZN5-2 (Q9NZN5 other isoform, or with tags, fused parts or gaps): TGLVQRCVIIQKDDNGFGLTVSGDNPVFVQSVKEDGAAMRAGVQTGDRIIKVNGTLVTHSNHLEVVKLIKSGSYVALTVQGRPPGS
Sequence of HTRA2, O43464 (O43464 355-458): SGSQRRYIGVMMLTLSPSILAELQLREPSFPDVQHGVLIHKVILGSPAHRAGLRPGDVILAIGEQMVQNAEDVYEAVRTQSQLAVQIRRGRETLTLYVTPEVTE
Sequence of MAGI2_3, Q86UL8 (Q86UL8 600-682): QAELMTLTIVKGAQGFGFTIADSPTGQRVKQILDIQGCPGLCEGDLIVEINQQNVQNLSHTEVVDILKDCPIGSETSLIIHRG
Sequence of PDLIM1, O00151 (O00151 1-87): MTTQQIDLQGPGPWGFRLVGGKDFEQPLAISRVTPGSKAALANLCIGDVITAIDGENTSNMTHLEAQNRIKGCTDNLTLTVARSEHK
Sequence of CASK, O14936 (O14936 487-570): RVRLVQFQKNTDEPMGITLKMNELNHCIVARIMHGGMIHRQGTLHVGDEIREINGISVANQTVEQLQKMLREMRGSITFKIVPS
Sequence of TJP1_2, Q07157 (Q07157 181-274): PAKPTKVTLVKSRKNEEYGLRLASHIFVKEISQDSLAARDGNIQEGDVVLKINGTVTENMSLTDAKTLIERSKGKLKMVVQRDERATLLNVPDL
Sequence of SCRIB_3, Q14160 (Q14160 999-1103): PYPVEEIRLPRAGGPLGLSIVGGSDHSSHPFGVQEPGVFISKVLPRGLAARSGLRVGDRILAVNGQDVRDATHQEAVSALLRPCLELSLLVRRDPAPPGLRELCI
Sequence of SCRIB_1, Q14160 (Q14160 718-814): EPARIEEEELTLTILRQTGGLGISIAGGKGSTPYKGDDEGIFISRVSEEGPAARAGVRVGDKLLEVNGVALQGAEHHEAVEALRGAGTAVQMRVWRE
Sequence of GORASP1, Q9BQQ3 (Q9BQQ3 1-208): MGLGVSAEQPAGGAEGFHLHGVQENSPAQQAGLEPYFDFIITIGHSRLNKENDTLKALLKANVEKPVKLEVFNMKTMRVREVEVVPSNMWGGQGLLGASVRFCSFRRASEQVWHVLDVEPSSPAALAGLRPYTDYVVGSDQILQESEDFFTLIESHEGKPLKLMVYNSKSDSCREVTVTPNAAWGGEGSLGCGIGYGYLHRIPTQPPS
Sequence of MAGI3_2, Q5TCQ9 (Q5TCQ9 398-503): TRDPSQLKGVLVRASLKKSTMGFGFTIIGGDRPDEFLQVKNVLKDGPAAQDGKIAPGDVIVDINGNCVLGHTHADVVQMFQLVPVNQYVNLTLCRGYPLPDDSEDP
Sequence of NHERF4_1, Q86UT5-2 (Q86UT5 other isoform, or with tags, fused parts or gaps): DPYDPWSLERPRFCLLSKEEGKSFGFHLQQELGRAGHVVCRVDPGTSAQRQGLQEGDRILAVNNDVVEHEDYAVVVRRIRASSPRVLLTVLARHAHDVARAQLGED
Sequence of MAST2, Q6P0Q8 (Q6P0Q8 1099-1202): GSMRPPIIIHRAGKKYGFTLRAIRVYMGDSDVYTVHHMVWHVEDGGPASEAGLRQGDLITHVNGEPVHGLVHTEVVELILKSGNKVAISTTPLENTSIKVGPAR
Sequence of NHERF2_2, Q15599 (Q15599 142-238): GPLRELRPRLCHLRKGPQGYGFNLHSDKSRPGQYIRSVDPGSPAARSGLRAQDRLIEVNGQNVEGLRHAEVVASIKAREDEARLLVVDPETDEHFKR
Sequence of PARD3_3, Q8TEW0 (Q8TEW0 582-685): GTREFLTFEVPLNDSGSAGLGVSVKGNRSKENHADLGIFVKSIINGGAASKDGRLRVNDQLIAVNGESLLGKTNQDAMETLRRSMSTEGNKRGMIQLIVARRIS
Sequence of Inadl_8, Q8NI35 (Q8NI35 1425-1530): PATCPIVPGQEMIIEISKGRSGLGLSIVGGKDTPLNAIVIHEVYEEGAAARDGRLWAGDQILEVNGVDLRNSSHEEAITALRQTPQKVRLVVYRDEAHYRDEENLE
Sequence of LNX1_1, Q8TBB1 (Q8TBB1 261-371): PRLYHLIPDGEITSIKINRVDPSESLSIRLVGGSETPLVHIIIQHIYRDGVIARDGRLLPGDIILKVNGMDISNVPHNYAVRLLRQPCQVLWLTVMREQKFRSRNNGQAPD
Sequence of Inadl_1, Q8NI35 (Q8NI35 113-229): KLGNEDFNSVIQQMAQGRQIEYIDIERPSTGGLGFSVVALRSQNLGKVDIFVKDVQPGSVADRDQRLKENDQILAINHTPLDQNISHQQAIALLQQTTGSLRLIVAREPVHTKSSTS
Sequence of SCRIB_2, Q14160 (Q14160 857-960): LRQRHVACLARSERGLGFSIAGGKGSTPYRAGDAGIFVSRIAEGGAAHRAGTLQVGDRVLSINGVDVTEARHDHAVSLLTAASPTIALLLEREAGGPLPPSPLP

In the case of TVICWPGSLV [LNX2, Q8N448], the pKd (MAST1, Q9Y2H9; [1]) is reported as 3.88, the pKd (MAGI2_5, Q86UL8; [1]) is reported as 4.35 and the pKd (Inadl_1, Q8NI35; [1]) is reported as “below the threshold”. The pKd (NHERF4_1, Q86UT5-2; [1]) was 3.55, the pKd (MAGI2_3, Q86UL8; [1]) was 3.66 and the pKd (APBA1_1, Q02410; [1]) was “below the threshold”. The pKd (CASK, O14936; [1]) was “below the threshold”, the pKd (LIN7B, Q9HAP6; [1]) was 4.46 and the pKd (GORASP1, Q9BQQ3; [1]) was 3.58. The pKd (SCRIB_2, Q14160; [1]) was 3.65, the pKd (ARHGEF12, Q9NZN5-2; [1]) was “below the threshold” and the pKd (AHNAK1, Q09666; [1]) was “below the threshold”. The pKd (GRIP1_7, Q9Y3R0; [1]) was “below the threshold”, the pKd (DLG3_3, Q92796; [1]) was 3.95 and the pKd (MAGI3_2, Q5TCQ9; [1]) was 4.58. The pKd (SNX27, Q96L92; [1]) was 3.95, the pKd (SCRIB_3, Q14160; [1]) was 4.11 and the pKd (LNX1_1, Q8TBB1; [1]) was 4.79. For the same binder, the pKd (NHERF2_2, Q15599; [1]) was “below the threshold”, the pKd (SNTG2, Q9NY99; [1]) was 3.73 and the pKd (Inadl_8, Q8NI35; [1]) was 4.57. It also gave a pKd (LIN7C, Q9NUP9; [1]) of 4.98, a pKd (MAST2, Q6P0Q8; [1]) of 4.1 and a pKd (HTRA2, O43464; [1]) of 4.42. The pKd (PTPN3, P26045; [1]) was 4.23, the pKd (GRIP1_2, Q9Y3R0; [1]) was “below the threshold” and the pKd (TJP3_3, O95049; [1]) was 3.5. For the same binder, the pKd (PARD3_3, Q8TEW0; [1]) was 3.68, the pKd (TJP1_2, Q07157; [1]) was “below the threshold” and the pKd (PDLIM1, O00151; [1]) was 4.31. For the same binder, the pKd (SCRIB_1, Q14160; [1]) was “below the threshold”.

For NLNSSRVPDLLV [SARS-CoV2-E, P0DTC4], the pKd (MAST1, Q9Y2H9; [2]) was “below the threshold”, the pKd (MAGI2_5, Q86UL8; [2]) was “below the threshold” and the pKd (Inadl_1, Q8NI35; [2]) was “below the threshold”. The pKd (NHERF4_1, Q86UT5-2; [2]) was “below the threshold”, the pKd (MAGI2_3, Q86UL8; [2]) was “below the threshold” and the pKd (APBA1_1, Q02410; [2]) was “below the threshold”. For the same binder, the pKd (CASK, O14936; [2]) was “below the threshold”, the pKd (LIN7B, Q9HAP6; [2]) was “below the threshold” and the pKd (GORASP1, Q9BQQ3; [2]) was 3.6. For the same binder, the pKd (SCRIB_2, Q14160; [2]) was “below the threshold”, the pKd (ARHGEF12, Q9NZN5-2; [2]) was “below the threshold” and the pKd (AHNAK1, Q09666; [2]) was “below the threshold”. For the same binder, the pKd (GRIP1_7, Q9Y3R0; [2]) was “below the threshold”, the pKd (DLG3_3, Q92796; [2]) was “below the threshold” and the pKd (MAGI3_2, Q5TCQ9; [2]) was “below the threshold”. For the same binder, the pKd (SNX27, Q96L92; [2]) was “below the threshold”, the pKd (SCRIB_3, Q14160; [2]) was “below the threshold” and the pKd (LNX1_1, Q8TBB1; [2]) was “below the threshold”. For the same binder, the pKd (NHERF2_2, Q15599; [2]) was “below the threshold”, the pKd (SNTG2, Q9NY99; [2]) was “below the threshold” and the pKd (Inadl_8, Q8NI35; [2]) was “below the threshold”. The pKd (LIN7C, Q9NUP9; [2]) was “below the threshold”, the pKd (MAST2, Q6P0Q8; [2]) was “below the threshold” and the pKd (HTRA2, O43464; [2]) was “below the threshold”. The pKd (PTPN3, P26045; [2]) was “below the threshold”, the pKd (GRIP1_2, Q9Y3R0; [2]) was “below the threshold” and the pKd (TJP3_3, O95049; [2]) was “below the threshold”. The pKd (PARD3_3, Q8TEW0; [2]) was 3.82, the pKd (TJP1_2, Q07157; [2]) was 5.52 and the pKd (PDLIM1, O00151; [2]) was “below the threshold”. For the same binder, the pKd (SCRIB_1, Q14160; [2]) was “below the threshold”.

In the case of PSASCAVTAA [PDLIM4, P50479;P50479-2], the pKd (MAST1, Q9Y2H9; [1]) is reported as “below the threshold”, the pKd (MAGI2_5, Q86UL8; [1]) is reported as “below the threshold” and the pKd (Inadl_1, Q8NI35; [1]) is reported as “below the threshold”. The pKd (NHERF4_1, Q86UT5-2; [1]) was “below the threshold”, the pKd (MAGI2_3, Q86UL8; [1]) was “below the threshold” and the pKd (APBA1_1, Q02410; [1]) was “below the threshold”. The pKd (CASK, O14936; [1]) was “below the threshold”, the pKd (LIN7B, Q9HAP6; [1]) was “below the threshold” and the pKd (GORASP1, Q9BQQ3; [1]) was “below the threshold”. For the same binder, the pKd (SCRIB_2, Q14160; [1]) was “below the threshold”, the pKd (ARHGEF12, Q9NZN5-2; [1]) was “below the threshold” and the pKd (AHNAK1, Q09666; [1]) was “below the threshold”. The pKd (GRIP1_7, Q9Y3R0; [1]) was “below the threshold”, the pKd (DLG3_3, Q92796; [1]) was “below the threshold” and the pKd (MAGI3_2, Q5TCQ9; [1]) was “below the threshold”. For the same binder, the pKd (SNX27, Q96L92; [1]) was “below the threshold”, the pKd (SCRIB_3, Q14160; [1]) was “below the threshold” and the pKd (LNX1_1, Q8TBB1; [1]) was “below the threshold”. For the same binder, the pKd (NHERF2_2, Q15599; [1]) was “below the threshold”, the pKd (SNTG2, Q9NY99; [1]) was “below the threshold” and the pKd (Inadl_8, Q8NI35; [1]) was “below the threshold”. The pKd (LIN7C, Q9NUP9; [1]) was “below the threshold”, the pKd (MAST2, Q6P0Q8; [1]) was “below the threshold” and the pKd (HTRA2, O43464; [1]) was “below the threshold”. The pKd (PTPN3, P26045; [1]) was “below the threshold”, the pKd (GRIP1_2, Q9Y3R0; [1]) was “below the threshold” and the pKd (TJP3_3, O95049; [1]) was “below the threshold”. For the same binder, the pKd (PARD3_3, Q8TEW0; [1]) was “below the threshold”, the pKd (TJP1_2, Q07157; [1]) was “below the threshold” and the pKd (PDLIM1, O00151; [1]) was “below the threshold”. The pKd (SCRIB_1, Q14160; [1]) was “below the threshold”.
